From patent US20030180895A1

Key:
Test in all cases: cell-based or functional assay
[1] = target: Bacillus subtilis xylanase A mutant D119Y (Bacillus subtilis) (UniProt P18429)
[2] = target: Bacillus subtilis xylanase A mutant D11N (Bacillus subtilis) (UniProt P18429)
[3] = target: Bacillus subtilis xylanase A mutant D121K (Bacillus subtilis) (UniProt P18429)
[4] = target: Bacillus subtilis xylanase A mutant N114F (Bacillus subtilis) (UniProt P18429)
[5] = target: Bacillus subtilis xylanase A mutant N29K (Bacillus subtilis) (UniProt P18429)
[6] = target: Bacillus subtilis xylanase A mutant R122D (Bacillus subtilis) (UniProt P18429)

wheat endogenous xylanase inhibitor
Relative inhibition, % at 1, 26 XIU/ml [1]: 87%
Relative inhibition, % at 3, 15 XIU/ml [1]: 50%
Relative inhibition, % at 6, 3 XIU/ml [1]: 28%
Relative inhibition, % at 12, 6 XIU/ml [1]: 22%
Relative inhibition, % at 1, 26 XIU/ml [2]: 93%
Relative inhibition, % at 3, 15 XIU/ml [2]: 72%
Relative inhibition, % at 6, 3 XIU/ml [2]: 53%
Relative inhibition, % at 12, 6 XIU/ml [2]: 32%
Relative inhibition, % at 1, 26 XIU/ml [3]: 104%
Relative inhibition, % at 3, 15 XIU/ml [3]: 95%
Relative inhibition, % at 6, 3 XIU/ml [3]: 85%
Relative inhibition, % at 12, 6 XIU/ml [3]: 75%
Relative inhibition, % at 1, 26 XIU/ml [4]: 84%
Relative inhibition, % at 3, 15 XIU/ml [4]: 54%
Relative inhibition, % at 6, 3 XIU/ml [4]: 39%
Relative inhibition, % at 12, 6 XIU/ml [4]: 34%
Relative inhibition, % at 1, 26 XIU/ml [5]: 83%
Relative inhibition, % at 3, 15 XIU/ml [5]: 50%
Relative inhibition, % at 6, 3 XIU/ml [5]: 30%
Relative inhibition, % at 12, 6 XIU/ml [5]: 23%
Relative inhibition, % at 1, 26 XIU/ml [6]: 85%
Relative inhibition, % at 3, 15 XIU/ml [6]: 59%
Relative inhibition, % at 6, 3 XIU/ml [6]: 41%
Relative inhibition, % at 12, 6 XIU/ml [6]: 28%
